In US20230201364A1:

B1: CMP-016 (LZM-009 conjugated to CMP-003, DAR 1, K248) (antibody)
VH: QVQLVQSGAEVKKPGASVKVSCKASGYTFTSYYMYWVRQAPGQGLEWMGGVNPSNGGTNFNEKFKSRVTITADKSTSTAYMELSSLRSEDTAVYYCARRDYRYDMGFDYWGQGTTVTVSS
VL: EIVLTQSPATLSLSPGERATISCRASKGVSTSGYSYLHWYQQKPGQAPRLLIYLASYLESGVPARFSGSGSGTDFTLTISSLEPEDFATYYCQHSRELPLTFGTGTKVEIK
chain: APTSSSTKKTQLQLEHLLLDLQXILNGINNYKNPKLTRXLXYKFYXPKKATELKHLQCLEEELKPLEEVLXLAQSKNFHLRPRDLISNINVIVLELKGSETTFXCEYADETATIVEFLNRWITFSQSIISTLT
modifications: not fully specified; Nle at 23, 39, 46 and Hse at 41, 71, 104 (as in SEQ ID NO: 3); ~0.5 kDa PEG on Y45; 0.5 kDa PEG on F42Y whose azide end is joined to the DBCO linker of the antibody; the heavy chain carries a chemical linker to CMP-003 on Lys K248 (Eu numbering) of the Fc; DAR 1
B2: CMP-028 (LZM-009 conjugated to CMP-003, DAR 1.9, K288) (antibody)
VH: B1 VH
VL: B1 VL
chain: B1 chain
modifications: not fully specified; Nle at 23, 39, 46 and Hse at 41, 71, 104 (as in SEQ ID NO: 3); ~0.5 kDa PEG on Y45; 0.5 kDa PEG on F42Y whose azide end is joined to the DBCO linker of the antibody; the heavy chain carries a chemical linker to CMP-003 on Lys K288 (Eu numbering) of the Fc; DAR 1.9
B3: CMP-102 (LZM-009 conjugated to CMP-003, DAR 1, K288) (antibody)
VH: B1 VH
VL: B1 VL
chain: B1 chain
modifications: not fully specified; Nle at 23, 39, 46 and Hse at 41, 71, 104 (as in SEQ ID NO: 3); ~0.5 kDa PEG on Y45; 0.5 kDa PEG on F42Y whose azide end is joined to the DBCO linker of the antibody; the heavy chain carries a chemical linker to CMP-003 on Lys K288 (Eu numbering) of the Fc; DAR 1

Biological target: Fc gamma receptor IIb (FcgRIIb, CD32b) (human) (UniProt P31994)
Sequence (P31994 46-217 limits assumed): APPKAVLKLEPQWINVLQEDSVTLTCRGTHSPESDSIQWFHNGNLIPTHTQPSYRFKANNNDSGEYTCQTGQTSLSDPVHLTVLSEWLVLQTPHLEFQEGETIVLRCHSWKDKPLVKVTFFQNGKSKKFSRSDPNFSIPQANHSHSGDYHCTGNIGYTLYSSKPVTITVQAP
Test: AlphaLISA competition or analogous assay for FcγRIIb (not described)

Binder	Kd [nM]
B1	4710
B2	3340
B3	6680

Biological target: recombinant biotinylated human Fc gamma receptor IIa (FcγRIIa/CD32a 167H) (human) (UniProt P12318)
Sequence (P12318 36-218 limits assumed): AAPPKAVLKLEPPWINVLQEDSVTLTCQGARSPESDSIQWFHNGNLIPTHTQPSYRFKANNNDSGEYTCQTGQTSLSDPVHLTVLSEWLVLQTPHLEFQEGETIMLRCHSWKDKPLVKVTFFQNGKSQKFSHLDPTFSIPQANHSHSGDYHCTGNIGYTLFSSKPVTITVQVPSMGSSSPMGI
Test: AlphaLISA competition; test molecule titrated against human IgG Fc acceptor beads for biotinylated FcγRIIa

Binder	Kd [nM]
B1	1140
B2	1870
B3	1180

Biological target: recombinant biotinylated human neonatal Fc receptor (FcRn) (human) (UniProt P55899)
Sequence (P55899 24-297 limits assumed, chain 1 of 2): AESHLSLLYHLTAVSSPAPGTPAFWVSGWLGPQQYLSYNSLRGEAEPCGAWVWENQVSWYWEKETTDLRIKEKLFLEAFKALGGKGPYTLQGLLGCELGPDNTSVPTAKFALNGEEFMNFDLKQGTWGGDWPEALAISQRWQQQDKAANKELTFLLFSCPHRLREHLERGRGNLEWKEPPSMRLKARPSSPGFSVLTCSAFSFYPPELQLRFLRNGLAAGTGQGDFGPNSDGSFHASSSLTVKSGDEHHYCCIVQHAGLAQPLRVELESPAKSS
Sequence (chain, as listed by the source limits assumed, chain 2 of 2): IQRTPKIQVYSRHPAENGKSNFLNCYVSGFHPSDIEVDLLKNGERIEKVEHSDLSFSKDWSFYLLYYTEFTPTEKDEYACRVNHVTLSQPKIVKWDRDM
Test: AlphaLISA competition at pH 6; test molecule titrated against human IgG acceptor beads for biotinylated human FcRn

Binder	Kd [nM]
B1	25.3
B2	27.1
B3	10.7

Biological target: recombinant biotinylated human Fc gamma receptor I (FcγRI/CD64) (human) (UniProt P12314)
Sequence (P12314 16-288 limits assumed): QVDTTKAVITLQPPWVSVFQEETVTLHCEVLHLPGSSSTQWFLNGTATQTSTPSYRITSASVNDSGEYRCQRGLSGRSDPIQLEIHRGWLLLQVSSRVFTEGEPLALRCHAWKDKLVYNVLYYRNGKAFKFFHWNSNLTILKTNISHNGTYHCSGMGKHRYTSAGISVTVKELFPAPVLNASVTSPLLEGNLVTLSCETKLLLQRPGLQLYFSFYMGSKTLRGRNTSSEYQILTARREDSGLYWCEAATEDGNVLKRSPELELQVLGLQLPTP
Test: AlphaLISA competition; test molecule titrated against human IgG Fc acceptor beads for biotinylated FcγRI

Binder	Kd [nM]
B1	3.81
B2	12
B3	2.3

Biological target: recombinant biotinylated human Fc gamma receptor IIIa (FcγRIIIa/CD16) (human) (UniProt P08637)
Sequence (P08637 17-208 limits assumed): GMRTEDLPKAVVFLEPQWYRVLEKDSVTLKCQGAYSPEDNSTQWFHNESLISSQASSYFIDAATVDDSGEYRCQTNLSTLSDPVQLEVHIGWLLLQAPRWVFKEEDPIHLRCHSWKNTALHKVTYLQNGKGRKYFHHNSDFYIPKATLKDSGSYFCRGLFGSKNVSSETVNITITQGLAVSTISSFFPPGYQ
Test: AlphaLISA competition; test molecule titrated against human IgG Fc acceptor beads for biotinylated FcγRIIIa

Binder	Kd [nM]
B1	481
B2	5410
B3	272
